# Where two headings read alike, the source gives them in different places. Bridges are numbered along the chain shown (N, C = ends). [ ]: non-standard residue; d: D form. Ygp = O-(8x polyethylene glycol-amino)-tyrosine; Yn3 = O-(9x polyethylene glycol-azido)-tyrosine; hSer = N[C@@H](CCO)C(=O)O; Nle = CCCC[C@H](N)C(=O)O
# T1: IL-2 receptor βγ complex on pan T cells (human, UniProt P14784 27-551; P31785 23-369)
# T1 sequence (looked up) 1: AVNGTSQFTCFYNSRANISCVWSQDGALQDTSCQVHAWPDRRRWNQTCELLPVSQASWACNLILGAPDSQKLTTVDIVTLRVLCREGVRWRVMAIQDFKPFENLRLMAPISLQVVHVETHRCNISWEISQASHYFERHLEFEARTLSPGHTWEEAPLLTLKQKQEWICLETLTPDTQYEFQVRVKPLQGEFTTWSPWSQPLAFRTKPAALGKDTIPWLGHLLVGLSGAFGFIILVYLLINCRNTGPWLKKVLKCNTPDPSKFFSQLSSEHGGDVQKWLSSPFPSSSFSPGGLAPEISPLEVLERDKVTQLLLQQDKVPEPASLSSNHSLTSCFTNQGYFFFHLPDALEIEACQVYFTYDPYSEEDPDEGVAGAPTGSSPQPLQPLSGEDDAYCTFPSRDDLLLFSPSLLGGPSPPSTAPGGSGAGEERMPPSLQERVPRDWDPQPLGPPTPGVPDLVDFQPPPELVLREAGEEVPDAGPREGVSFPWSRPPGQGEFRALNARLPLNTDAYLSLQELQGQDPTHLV
# T1 sequence (looked up) 2: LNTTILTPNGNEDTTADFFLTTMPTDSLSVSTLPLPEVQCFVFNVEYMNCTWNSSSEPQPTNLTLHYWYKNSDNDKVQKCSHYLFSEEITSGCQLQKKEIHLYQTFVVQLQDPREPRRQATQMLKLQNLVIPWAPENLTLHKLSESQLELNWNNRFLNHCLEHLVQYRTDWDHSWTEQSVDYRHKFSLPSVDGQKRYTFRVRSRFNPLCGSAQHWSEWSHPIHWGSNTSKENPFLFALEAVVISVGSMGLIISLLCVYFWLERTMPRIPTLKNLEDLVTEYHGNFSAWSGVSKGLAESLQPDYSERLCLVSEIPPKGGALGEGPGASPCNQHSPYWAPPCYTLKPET
# T2: recombinant human IL-2 receptor beta containing a His-tag and Avi-Tag (R&D Systems #AVI10459) (human, UniProt P14784 27-239)
# T2 construct: bought protein, held on the Octet SAX2 sensor; also called CD122; IL-2Rβ
# T2 sequence (looked up): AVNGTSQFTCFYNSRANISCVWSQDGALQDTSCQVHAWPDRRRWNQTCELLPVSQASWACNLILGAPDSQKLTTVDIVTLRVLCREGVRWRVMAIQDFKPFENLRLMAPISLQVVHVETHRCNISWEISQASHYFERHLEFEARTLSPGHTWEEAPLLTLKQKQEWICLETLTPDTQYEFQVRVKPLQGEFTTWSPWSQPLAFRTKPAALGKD
# T3: Avi-Tag Fc with human IL-2R beta and IL-2R gamma attached (Acrobiosystems ACRB-ILG-H82F3-25UG) (human, UniProt P14784 27-239; P31785 23-262)
# T3 construct: bought heterodimer; also called CD122 CD132; CD122/CD132 complex
# T3 sequence (looked up) 1: T2 sequence (looked up)
# T3 sequence (looked up) 2: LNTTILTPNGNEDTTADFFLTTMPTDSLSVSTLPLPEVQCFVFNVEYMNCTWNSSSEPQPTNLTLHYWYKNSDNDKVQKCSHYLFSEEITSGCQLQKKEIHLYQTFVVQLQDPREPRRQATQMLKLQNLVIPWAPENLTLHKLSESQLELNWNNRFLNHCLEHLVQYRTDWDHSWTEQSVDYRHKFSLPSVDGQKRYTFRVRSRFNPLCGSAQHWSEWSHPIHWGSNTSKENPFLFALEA
# T4: mouse FcRn (mouse, UniProt Q61559 22-297; P01887 21-119, limits assumed)
# T4 construct: construct not described
# T4 sequence (looked up): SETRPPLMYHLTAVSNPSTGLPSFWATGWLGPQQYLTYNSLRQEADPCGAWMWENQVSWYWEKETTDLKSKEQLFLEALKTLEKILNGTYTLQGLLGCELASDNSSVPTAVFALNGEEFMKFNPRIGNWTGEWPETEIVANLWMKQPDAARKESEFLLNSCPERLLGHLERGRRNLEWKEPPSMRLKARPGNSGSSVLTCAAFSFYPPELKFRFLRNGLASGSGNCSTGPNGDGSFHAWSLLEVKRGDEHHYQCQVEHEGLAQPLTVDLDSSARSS
# T4 sequence (b2m, looked up): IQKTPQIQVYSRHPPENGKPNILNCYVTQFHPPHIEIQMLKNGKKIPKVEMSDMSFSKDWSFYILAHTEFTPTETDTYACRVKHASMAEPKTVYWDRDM
# T5: mouse CD64 (mouse, UniProt P26151 25-297, limits assumed)
# T5 construct: construct not described; also called mouse FcgR I (CD64)
# T5 sequence (looked up): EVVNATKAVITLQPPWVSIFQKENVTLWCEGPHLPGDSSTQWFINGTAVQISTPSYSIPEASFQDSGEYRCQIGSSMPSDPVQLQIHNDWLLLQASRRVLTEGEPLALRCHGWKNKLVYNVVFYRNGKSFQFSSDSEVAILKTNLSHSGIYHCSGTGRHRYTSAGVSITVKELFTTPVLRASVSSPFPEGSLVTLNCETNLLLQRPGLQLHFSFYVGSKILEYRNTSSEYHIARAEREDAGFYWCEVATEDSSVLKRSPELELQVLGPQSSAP
# B1: CMP-151 (ligand)
# chain: APTSSSTKKTQLQLEHLLLDLQKILNGINNYKNPKLTR[Nle]L[hSer][Yn3]KF[Ygp][Nle]PKKATELKHLQCLEEELKPLEEVL[hSer]LAQSKNFHLRPRDLISNINVIVLELKGSETTF[hSer]CEYADETATIVEFLNRWITFSQSIISTLT
# modifications: disulfide 58-105; bridge N-23; not fully specified (bridges)
# B2: CMP-165 (ligand)
# chain: APTSSSTKKTQLQLEHLLLDLQKILNGINNYKNPKLTR[Nle]L[hSer][Yn3]KF[Ygp][Nle]PKKATELKHLQCLEEELKPLEEVL[hSer]LAQSKNFHLRPRDLISNINVIVLELKGSETTF[hSer]CEYADETATIVEFLNRWITFSQSIISTLT
# modifications: disulfide 58-105 (inferred); bridge N-23; not fully specified (bridges)
# B3: CMP-168 (ligand)
# chain: APTSSSTKKTQLQLEHLLLDLQEILNGINNYKNPKLTR[Nle]L[hSer][Yn3]KF[Ygp][Nle]PKKATELKHLQCLEEELKPLEEVL[hSer]LAQSKNFHLRPRDLISNINVIVLELKGSETTF[hSer]CEYADETATIVEFLNRWITFSQSIISTLT
# modifications: disulfide 58-105 (inferred); bridge 9-23; not fully specified (residue 23, bridges)
# B4: LZM-009 (antibody, human IgG4 S228P, kappa)
# heavy: not shown
# light: EIVLTQSPATLSLSPGERATISCRASKGVSTSGYSYLHWYQQKPGQAPRLLIYLASYLESGVPARFSGSGSGTDFTLTISSLEPEDFATYYCQHSRELPLTFGTGTKVEIKRTVAAPSVFIFPPSDEQLKSGTASVVCLLNNFYPREAKVQWKVDNALQSGNSQESVTEQDSKDSTYSLSSTLTLSKADYEKHKVYACEVTHQGLSSPVTKSFNRGEC
# notes: unconjugated anti-PD-1 IgG4; also called LZM-009 Intact
# Key:
# [1] = target: T1, IL-2 receptor βγ complex on pan T cells; experiment: cell-based or functional assay
# [2] = target: T2, recombinant human IL-2 receptor beta …; experiment: BLI (Octet), receptor on SAX2 sensor, IL-2 as analyte; construct CMP-151, macrocyclic activatable IL-2 polypeptide
# Method: (§1) Bilayer interferometry (BLI) assays were used to measure the binding constants between activatable IL-2 polypeptides (and activated versions thereof) to IL-2 receptor subunits or receptor complexes. BLI assays were conducted on an Octet® R8 instrument. Assay plates were 96 well, polypropylene, F-bottom (chimney well), black microplates (Greiner Bio-one, Cat. No: 655209). The biosensors were Octet® SAX2 (Sartorius, Cat. No: 18-5136). The assay buffer was 1× Kinetic Buffer (Sartorius, Cat. no: 18-5136) or Phosphate Buffered Saline (PBS) that contained 0.02% (v: v) Tween 20 (Polysorbate 20) and 0.1% (w/v) bovine serum albumin (BSA). The sensor was regenerated between measurements in 10 mM glycine pH 2.7 buffer.
# (§2) Sensor attached receptors were either recombinant human IL-2 receptor beta containing a His-tag and Avi-Tag™ (R&D Systems™ #AVI10459) or an Avi-Tag™ Fc with human IL-2R beta and IL-2R gamma attached (Acrobiosystems Cat. no: ACRB-ILG-H82F3-25UG). Receptors were reconstituted from lyophilized powder to 500 μg/ml in PBS. Analytes were diluted in Kinetic buffer to 300 nM, then serially diluted to lower concentrations.
# [3] = target: T2, recombinant human IL-2 receptor beta …; experiment: BLI (Octet), receptor on SAX2 sensor, IL-2 as analyte; construct CMP-165, intact (not the MMP2-treated row r16)
# Method: as §1, §2
# [4] = target: T2, recombinant human IL-2 receptor beta …; experiment: BLI (Octet), receptor on SAX2 sensor, IL-2 as analyte
# Method: as §1, §2
# [5] = target: T3, Avi-Tag Fc with human IL-2R beta and …; experiment: as above
# Method: as §1, §2
# [6] = target: T2, recombinant human IL-2 receptor beta …; experiment: BLI (Octet), receptor on SAX2 sensor, IL-2 as analyte; construct CMP-168, intact (not the MMP2-treated row r13)
# Method: as §1, §2
# [7] = target: T1, IL-2 receptor βγ complex on pan T cells; experiment: cell-based or functional assay; remark: listed apart in the source
# [8] = target: T4, mouse FcRn; experiment: analogous AlphaLISA protocol with mouse FcRn
# Method: (§3) FcRn Binding Assays—The ability of the activatable immunocytokines to bind to FcRn receptor was performed following manufacturer's instructions using the AlphaLISA FcRn Human Binding kit, Perkin Elmer, Cat #AL3095C. An analogous protocol was performed husing mouse FcRn.
# [9] = target: T6, recombinant Human Fc gamma RI/CD64 Protein (R&D systems, 1257-FC-050) (human, UniProt P12314 16-288); experiment: ELISA, test molecule coated, human CD64 titrated
# T6 construct: also called human FcgR I (CD64); FcγRI
# Method: FcγRI (CD64) Binding Assays—The interaction of the activatable immunocytokines with human Fc gamma receptors I (FcγRI/CD64) was measured by ELISA. Briefly, Corning high-binding half-area plates (Fisher Scientific, Reinach, Switzerland) were coated overnight at 4° C. with 25 μl of immunocytokines at […] in PBS. Plates were then washed four times with 100 μl of PBS-0.2% Tween20 (wash buffer). Plates surfaces were blocked with 25 μl of PBS1% BSA at 37° C. for 1h. Plates were then washed four times with wash buffer. Then twenty-five microliters of either recombinant Human Fc gamma RI/CD64 Protein (R&D systems, 1257-FC-050, CF) was added in serial dilutions into PBS-T-0.1% BSA and incubated at 37° C. for 2h. Plates were then washed four times with 100 μl of wash buffer. Twenty-five microliters of Streptavidin-Horseradish peroxidase (#RABHRP3, Merck, Buchs, Switzerland) diluted into PBS-T-0.1% BSA were added to each well and incubated at Room Temperature for 1h. Plates were then washed four times with wash buffer. TMB substrate reagent (#CL07, Merck, Buchs, Switzerland) were added to each well and incubated for 5 min. After 5 min, Horseradish peroxidase reaction was stopped by adding 1M H2SO4 stop solution. ELISA signal was then measured at 450 nm on a plate reader.
# [10] = target: T7, human FcRn (AlphaLISA FcRn Human Binding kit, Perkin Elmer AL3095C) (human, UniProt P55899 24-297; P61769 21-119, limits assumed); experiment: AlphaLISA FcRn Human Binding kit (competition)
# T7 construct: kit reagent, construct not described
# Method: as §3
# [11] = target: human PD-1 on Jurkat T cells (PD-1/PD-L1 Blockade Bioassay) (human, UniProt Q15116 25-288); experiment: cell-based or functional assay
# [12] = target: T5, mouse CD64; experiment: ELISA, analogous protocol with mouse CD64
# [13] = target: T8, recombinant biotinylated PD1/CD279 protein (Biolegend 789406) (human, UniProt Q15116 25-167, limits assumed, biotinylated); experiment: ELISA, test molecule coated, biotinylated PD-1 titrated, streptavidin-HRP
# T8 construct: also called human PD1
# Method: Plates were then washed four times with 100 μl of PBS-0.2% Tween20 (wash buffer). […] Plates were then washed four times with 100 μl of wash buffer. […] Plates were then washed four times with wash buffer. […] Plates were then washed four times with 100 μl of wash buffer. Fifty microliters of TMB substrate reagent (#CL07, Merck, Buchs, Switzerland) were added to each well and incubated at 37° C. during 5 min. After 5 min at 37° C., Horseradish peroxidase reaction was stopped by adding 50 μl/well of 0.5M H₂SO₄ stop solution. ELISA signal was then measured at 450 nm on an EnSpire plate reader from Perkin Elmer (Schwerzenbach, Switzerland).
binder,measurement,setting,value
B1,"Average EC50, pSTAT5 assay in pan T cells, intact molecule",[1],28.2 nM
same,Kd,[2],65.4 nM
B2,Kd,[3],44200 nM
B3,koff,[4],0.0721 s⁻¹
same,kon,[4],2880 M⁻¹ s⁻¹
same,Kd,[5],136 nM
same,koff,[5],0.0022 s⁻¹
same,kon,[5],16200 M⁻¹ s⁻¹
same,Kd,[6],25100 nM
same,"Average EC50, pSTAT5 assay in pan T cells, intact molecule",[7],144 nM
B4,EC50,[8],0.77 nM
same,EC50,[9],0.32 nM
same,IC50,[10],5.79 nM
same,"Mean EC50, PD1/PD-L1 blockade (NFAT-RE luciferase reporter)",[11],7.34 nM
same,EC50,[12],554 nM
same,EC50,[13],0.05 nM

# Source: US20240417436A1 (BRIGHT PEAK THERAPEUTICS, published 2024)
